This note sets out measurements from the nanobody polyreactivity screen of Harvey et al. (2022).

The series is described as follows: yeast display, Sf9 membrane polyspecificity reagent, FACS + sequencing; frameworks hold sequencing errors. A digest of the protocol: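 In a synthetic yeast display library (Saccharomyces cerevisiae BJ5465), nanobody expression was induced with galactose for 36–48 hours. FACS gates were set low and high (top ~1%) using anti-HA fluorescence for expression and streptavidin fluorescence for binding of the Sf9 membrane reagent. Each polyreactivity label is drawn from the gate of origin.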
Regarding “QVQLVESGGGLVQAGGSLRLSFAASGITFTVYTMGWNRQAHGKVRELVPTINSSGSTYYADSVKGRFTISRDNAKNRVYLQMNSLKPEDTAVYYCAAEYWINRDLMDYWGQGTQVTVSS”, the “polyreactivity (PSR sort gate)” value is “high polyreactivity”.

For “QVQLVESGGGLVQAGGSLRLSFAASGITFYYYTMGWYRQAPGKERELVAGITRGGRTYYADSVKGRFTISRDNSKNSVYLQMNSLKPEDTAVYYFNADPWWRFDYWGQGTQVTVSS”, the “polyreactivity (PSR sort gate)” value is “low polyreactivity”.

For “QVQLVESGGGLVQAGGSLRLSFAASGITITYYAMGWYRQAPGKERELVAGITNGRSTYYADSVKGRFTISRDNAKNTVYLQMNSLKPEDTAVYYCAAYVWSHSVGHDYWGQGTQVTVSS”, the “polyreactivity (PSR sort gate)” value is given as “low polyreactivity”.

Take “QVQLVESGGGLVQAGGSLRLSFAASGNILKSYAMGWYRQAHGKERELVAAISSSGGSTYYADSVKGRFTISRDNAKNSVYLQMNSLKPEDTAVYYCNAGAKSGKYYYWGQGTKVTVSS”: the “polyreactivity (PSR sort gate)” value is given as “low polyreactivity”.

In the case of “QVQLVESGGGLVQAGGSLRLSFAASGRIFGTNTMGWYRQATGKERELVAGISSSGDSTYYADSVKGRFTISRDKAKNTVYLQINSLKPEDTAVYYCAARKGEFWLPQGGYNYWGQGTQVTVSS”, the “polyreactivity (PSR sort gate)” value is “low polyreactivity”.

Consider “QVQLVESGGGLVQAGGSLRLSFAASGRIFSDNAMGWYRQAPGKERELVATINYSGGSTYYADSVKGRFTISRDNAKNTFYLQMNSLKPEDTAVYYCATRIPHRIIYYDYDYWGQGTQVTVSS”, for which the “polyreactivity (PSR sort gate)” value is given as “low polyreactivity”.

Take “QVQLVESGGGLVQAGGSLRLSFAASGRTFGEYTMGWYRQATGKERELVAAISSAGRTNYADSVKGRFTISRDNAKNTVYLQMNSLKPEDTAVYYCAADWTDDVPGYDYWGQGTQVTVSS”: the “polyreactivity (PSR sort gate)” value is recorded as “low polyreactivity”.

“QVQLVESGGGLVQAGGSLRLSFAASGRTFGKNAMGWYRQAPGKEREFVAAITSRGGSTYYADSVKGRFTISRDNAKNTVYLQMNSLKPEDTAVYYCNREYKRPSQRTEHYYWGQGTQVTVSS”: the “polyreactivity (PSR sort gate)” value is “low polyreactivity”.

For the sequence “QVQLVESGGGLVQAGGSLRLSFAASGRTFIGYAMGWSRQAPGKERELVAGISWSGGSTYYADSVKGRFTISRDNAKNTVYLQMNSLKPEDTAVYFCAARGRWSTEYRYWGQGTQVTVSS”, the “polyreactivity (PSR sort gate)” value is recorded as “low polyreactivity”.

As for “QVQLVESGGGLVQAGGSLRLSFAASGSIFGPYVMGWYRQAPGKERELVAAISKSGGSTYYADSVKGRFTISRDNAKNTVYLQMNSLKPEDTAVYYCATDYLGGGKRYYYWGQGTQVTVSS”, the “polyreactivity (PSR sort gate)” value is “high polyreactivity”.

As for “QVQLVESGGGLVQAGGSLRLSFAASGSIFSTYAMVWYRQAPGKERELVAAISTRGGRTYYADSLKGRFTLSRDNAKNTVYLQMNSLKPEDTAVYYCAADRYKTIGQWYYYWGQGTQVTVSS”, the “polyreactivity (PSR sort gate)” value is “high polyreactivity”.

Take “QVQLVESGGGLVQAGGSLRLSFAASGSIFSYYPMGWYSQAPGKERELVAAISTSGGRTYYADSVKGRFTISRDNEKNTVYLQLYSLKPEDTPVYYCAAPVRWKNYDYWGQGTQVTVSS”: the “polyreactivity (PSR sort gate)” value is “high polyreactivity”.

For the sequence “QVQLVESGGGLVQAGGSLRLSFAASGSISLYYAMGWYRKAPGKETELVAAISTRGGSTYYADSVKGRFTISRDNAKNTVYLQMNSLKPEDTAVYYCAARTRLTADPRYGISSKMYYWGQGTQVTVSS”, the “polyreactivity (PSR sort gate)” value is recorded as “high polyreactivity”.

In the case of “QVQLVESGGGLVQAGGSLRLSFAASGSTFNIYTMGWYRQAPGKEWELVARITFSGGSTYYADSVKGRFTISRDYAKNTVYLQMNSLKPEDTAVYYCAVRVYRVDHFCYDYWGQGTQVTVSS”, the “polyreactivity (PSR sort gate)” value is listed as “high polyreactivity”.

On to “QVQLVESGGGLVQAGGSLRLSFAASGSTFPSYAMGWYRQAPGKERELVAAITKGGSTTYADSVKGRFTISRDNAKNTVYLQMNSLKPEDTAVYYCAARYYYYYYYIRRDYWGQGTQVTVSS”, for which the “polyreactivity (PSR sort gate)” value is “low polyreactivity”.

For the sequence “QVQLVESGGGLVQAGGSLRLSGAASGGTFSTNAMGWYRQAPGKERELVAAISLSGGRTYADSEKGRFTISRDNAKNTVYLKMNSVKPEDTAVYYCNADSAGITRARSELDYWGQGTQVTVSS”, the “polyreactivity (PSR sort gate)” value is given as “low polyreactivity”.
